The values below come from PMC3203581.

Where two headings read alike, the source gives them in different places.

Data set [1] has as its target T1, tvMyb2 40-156 (Trichomonas vaginalis, UniProt Q58HP3 40-156).
T1 sequence: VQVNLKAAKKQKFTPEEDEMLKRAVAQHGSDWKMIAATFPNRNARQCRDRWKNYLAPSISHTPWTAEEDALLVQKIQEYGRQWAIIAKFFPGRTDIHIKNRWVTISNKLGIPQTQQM
Description: X-ray crystallography.

Data set [2] deals with T1, tvMyb2 40-156. Description: X-ray crystallography. The source holds these as a separate data set.

B1: MRE-2-13 (dsDNA)
DNA 1: CTGTATCGTCTTG
DNA 2: CAAGACGATACAG
B1: the binding result with tvMyb2 40-156 [1] was “binds”.

B2: MRE-1-12 (dsDNA)
DNA 1: ATAACGATATTT
DNA 2: AAATATCGTTAT
Consider B2, for which the binding result in the data set with tvMyb2 40-156 [2] is “binds”.
